Source: patent US8088892B2, “Inhibitors of proteins from the Rho-GEF family” (Centre National de la Recherche Scientifique (C.N.R.S.), priority 2002, dated 2012)

B1: TRIAPα: aptamer of 154 amino acids: variable region of 42 amino acids inserted into the thioredoxin protein; tested as GST fusion (protein)
chain: MSDKIIHLTDDSFDTDVLKADGAILVDFWAEWCGPAREGADGAICGYNLATLVMLGPSERVFCPLCEPCSSDIYELMGPCKMIAPILDEIADEYQGKLTVAKLNIDQNPGTAPKYGIRGIPTLLLFKNGEVASATKVGALSKGQLKEFLDANLA

Columns and labels:
[1] = test system: TrioGEFD2-mediated RhoA activation; assay: RhoA activity assay (Rhotekin RBD pull-down) in COS cells; type: cell-based; details: COS cells co-transfected, 48 hours
From the text: FIG. 5B represents the inhibitory effect of TRIPα on TrioGEFD2-mediated RhoA activation in intact cells using the RhoA activity assay, COS cells were transfected with GFP-TRIPα (left line), TrioGEFD2 (middle line) or both (right line). Cell lysates were subjected to GST-pulldown using the recombinant RBD (RhoA binding domain) fragment of the RhoA-specific effector Rhotekin. The presence of the GTP-bound form of RhoA and of the total RhoA protein was detected using a monoclonal anti-RhoA antibody and is represented in the upper two panels. GFP-TRIPα and TrioGEFD2 expression in the cell lysates is shown in the lower two panels.
Quantification of the RhoA activity assay is shown in the right part of the figure. The y-axis represents the ratio between active RhoA and total RhoA, in arbitrary units.
The Inventors then wanted to assess the inhibition by TRIPα of TrioGEFD2-mediated activation of endogenous RhoA in intact cells. To do so, the RhoA activity assay was used to detect the active GTP-bound form of RhoA (Ren et al., 1999). Briefly, COS cells were transfected as described in FIG. 5A with TrioGEFD2 in absence or in the presence of GFP-TRIAPα. 48 hours after transfection, cell lysates were subjected to GST-pull down using 20 μg of the recombinant RBD (RhoA binding domain) fragment of the RhoA-specific effector Rhotekin, that binds only to the activated GTP-bound form of RhoA.

TrioGEFD2 = TrioGEFD2 (Homo sapiens, UniProt O75962); assay: Co-immunoprecipitation of HA-TrioGEFD2 with GFP-TRIPα in COS cells; type: binding; set-up: using recombinant GST-TrioGEFD2 (a.a. 1848-2298), TrioDH2 (a.a. 1848-2096); made in house; details: anti-GFP IP, anti-HA western blot
From the text: HA-TrioGEFD2 was co-expressed with either GFP-TRIPα (right column) or GFP alone (left column). The upper panel represents the immunoprecipitation (IP) with the anti-GFP antibody (α-GEP), followed by a western-blot (WB) using the anti-HA antibody (α-HA) and the two lower panels represent the expression of the proteins in the cell lysates.
The Inventors next wanted to determine the effect of TRIPα on GEFD2-mediated RhoA activation in intact cells. First, it was checked whether TRIPα could bind to TrioGEFD2 in mammalian cells. For that purpose, vectors expressing the variable region of TRIAPα (TRIPα) fused to GFP in the pEGFP-C3 plasmid (Clontech) were designed. GFP or GFP-TRIPα were co-expressed with pMTHA-TroGEFD2 by transfection of COS cells using Lipofectamine Plus (Life Technologies) according to the manufacturer's protocol. Immunoprecipitation of GFP-tagged constructs from COS cell lysates were done with the polyclonal rabbit anti-GFP antibody (Torrey Pines Biolabs, Inc.).

TrioGEFD1 = target: T1, TrioGEFD1 (Homo sapiens, UniProt O75962); assay: In vitro GEF assay on RhoG; type: biochemical; set-up: key to in vitro GEF assay (inhibition): +++^2 and +^2 represent respectively a full and a partial (see FIG. 3) inhibitory effect; +++^2 and +^2 represent respectively a full and a partial (see FIG. 3) inhibitory effect; −−^2 represents a lack of inhibitory effect; details: for Effect on TrioGEFD1 exchange activity on RhoG: 20-fold molar excess, TrioGEFD1 0.1 μM, RhoG 0.3 μM
T1 construct: TrioGEFD1 (a.a. 1232-1629, 0.1 μM); made in house
Method: To test the specificity of TRIAPα inhibition in vitro, exchange experiments were performed either on RhoA with different RhoA-specific GEFs: Trio GEFD2 (0.4 μM), Kalirin GEFD2 (KalGEFD2, 1.7 μM), p63RhoGEF (Souchet et al., 2002) (0.4 μM) and Lbc (amino acids 172-598; Zheng et al., 1995) (0.4 μM), or on RhoG, with the RhoG-specific GEF domain of Trio (TrioGEFD1, 0.1 μM). Exchange assays were performed with the recombinant GEFs as described in FIG. 2A. Different concentrations of RhoGEFs were used to yield a similar nucleotide exchange efficiency. For each exchange factor, three independent experiments were done in absence (black bar) or in the presence (grey bar) of a 20-fold molar excess of TRIAPα.
An in vitro guanine nucleotide exchange (GEF) assay was used to test whether the TrioGEFD2-binding aptamers could inhibit the catalytic activity of TrioGEFD2 towards RhoA. For this purpose, the aptamers TRIAPα, TRIAPβ and TRIAPγ (including the Trx gene) were excised from pEG202 as EcoRI/NotI fragments and cloned into pGEX4T1 EcoRI/NotI. The aptamers were then expressed and purified from bacteria as GST fusion proteins, using standard procedures (Smith and Johnson, 1988). GTPase-GST fusion proteins were prepared, loaded with [^3H]GDP and the guanine nucleotide release assays were performed as described (Debant et al., 1996), using recombinant GST-TrioGEFD2 (a.a. 1848-2298), TrioDH2 (a.a. 1848-2096). For each point, 0.3 μM GTPase was mixed with or without 0.4 μM GEF in presence of non-labeled GTP, and the reaction mix was filtered after 0 min and 15 mm reaction at 25° C. The catalytic activity of TrioGEFD2 was thus measured by the decrease of the GTPase-associated radioactivity. The results are expressed as the ratio “exchange after 15 min over exchange after 0 min” (% bound [^3H]GDP-RhoA). To measure the effect of the aptamers on the exchange activity, a 20-fold molar excess of GST-TRIAPs was pre-incubated with GEFD2 (or GEFD1) for 30 min on ice before the exchange assay was carried out. For each experiment, data were obtained in triplicate. […]

Molecule	Inhibition of TrioGEFD2-mediated RhoA activation in intact cells [1]	Interaction with TrioGEFD2 in mammalian cells (TrioGEFD2)	Effect on TrioGEFD1 exchange activity on RhoG (TrioGEFD1)	Effect on TrioGEFD1 exchange activity on RhoG (TrioGEFD1; listed as GST-TRIAPα)	in vitro GEF assay (inhibition) (TrioGEFD1; RhoGEF TrioDH1PH1)
AREGADGAICGYNLATLVMLGPSERVFCPLCEPCSSDIYELM [TRIPα, 42-amino acid peptide corresponding to the variable region of TRIAPα]	able to inhibit TrioGEFD2-mediated RhoA activation	interacts with TrioGEFD2 in mammalian cells			
B1			has no effect	did not block	−−^2
